Experimental data: patent US20210145976A1

B1: SEQ ID NO 143 (designed binder)
chain: MLPAPKNLVVSRVTEDSARLSWTAPDAAFDSFHIAYEEADSEGEAIYLRVPGSERSYDLTGLKPGTEYSVNIQGVKGGIVSFPLHAEFTT
B2: SEQ ID NO 142 (designed binder)
chain: MLPAPKNLVVSRVTKDSARLSWTAPDAAFDSFHIAYEEATTYGEAIFLRVPGSERSYDLTGLKPGTEYEVKIHGVKGGADSKPLVAPFTT
B3: SEQ ID NO 162 (designed binder)
chain: MLPAPKNLVVSRVTEDSARLSWTAPDAAFDSFHIAYEEATTYGEAIFLRVPGSERSYDLTGLKPGTEYDVWIEGVKGGTISGPLSAIFTT
B4: SEQ ID NO 158 (designed binder)
chain: MLPAPKNLVVSRVTEDSARLSWTAPDAAFDSFIIDYLELDDYGEAIVLTVPGSERSYDLTGLKPGTEYPVYIYGVKGGLPSTPLSAIFTT
B5: SEQ ID NO 138 (designed binder)
chain: MLPAPKNLVVSRVTEDSARLSWTAPDAAFDSFFIKYIEWWADGEAIVLTVPGSERSYDLTGLKPGTEYLVEIYGVKGGRQSYPLSAIFTT
B6: SEQ ID NO 171 (designed binder)
chain: MLPAPKNLVVSRVTEDSARLSWTAPDAAFDSFAIRYLEWWDVGEAIVLTVPGSERSYDLTGLKPGTEYLVEIKGVKGGKFSYPLSAIFTT
B7: SEQ ID NO 130 (designed binder)
chain: MLPAPKNLVVSRVTEDSARLSWTAPDAAFDSFHIPYVEAEVPGEAIQLHVPGSERSYDLTGLKPGTEYYVEIWGVKGGFYSPPLIAEFTT
B8: SEQ ID NO 128 (designed binder)
chain: MLPAPKNLVVSRVTEDSARLSWTAPDAAFDSFIINYIEIVQYGEAIVLTVPGSERSYDLTGLKPGTEYPESIWGVKGGGASSPLSAIFTT
B9: SEQ ID NO 153 (designed binder)
chain: MLPAPKNLVVSRVTEDSARLSWTAPDAALDSFRIAYTEYFVGGEAIVLTVPGSERSYDLTGLKPGTEYGVGIYGVKGGAGSSPLSAIFTT
B10: SEQ ID NO 134 (designed binder)
chain: MLPAPKNLVVSRVTEDSARLSWTAPDAAFDSFWIDYYERKYVGEAIVLTVPGSERSYDLTGLKPGTEYEVTIYGVKGGWYSDPLSAIFTT
B11: SEQ ID NO 157 (designed binder)
chain: MLPAPKNLVVSRVTEDSARLSWTAPDAAFDSFAIEYYEYVGNGEAIVLTVPGSERSYDLTGLKPGTEYQVGIYGVKGGYYSRPLSAIFTT
B12: SEQ ID NO 137 (designed binder)
chain: MLPAPKNLVVSRVTEDSARLSWTAPDAAFDSFEIEYDEPSVAGEAIVLTVPGSERSYDLTGLKPGTEYRVFIWGVKGGNQSWPLSAIFTT
B13: SEQ ID NO 132 (designed binder)
chain: MLPAPKNLVVSRVTEDSARLSWTAPDAAFDSFTIVYAEVTYDGEAIVLTVPGSERSYDLTGLKPGTEYDVFIEGVKGGELSWPLSAIFTT
B14: SEQ ID NO 160 (designed binder)
chain: MLPAPKNLVVSRVTEDSARLSWTAPDAAFDSFNIAYGEWRQHGEAIVLTVPGSERSYDLTGLKPGTEYDVFIDGVKGGNLSWPLSAIFTT
B15: SEQ ID NO 154 (designed binder)
chain: MLPAPKNLVVSRVTEDSARLSWTAPDAAFDSFFIPYAEPRPDGEAIVLTVPGSERSYDLTGLKPGTEYSVLIHGVKGGLLSSPLSAIFTT
B16: SEQ ID NO 149 (designed binder)
chain: MLPAPKNLVVSRVTEDSARLSWTAPDAAFDSFIIPYAEVRPDGEAIVLTVPGSERSYDLTGLKPGTEYSVLIHGVKGGKLSEPLSAIFTT
B17: SEQ ID NO 146 (designed binder)
chain: MLPAPKNLVVSRVTEDSARLSWTAPDAAFDSFYIAYAEPRPDGEAIVLTVPGSERSYDLTGLKPGTEYSVLIHGVKGGLLSSPLSAIFTT
B18: SEQ ID NO 166 (designed binder)
chain: MLPAPKNLVVSRVTEDSARLSWTAPDAAFDSFTILYNEIQNVGEAIVLTVPGSERSYDLTGLKPGTEYDVWIEGVKGGELSWPLSAIFTT
B19: SEQ ID NO 42 (designed binder)
chain: MLPAPKNLVVSRVTEDSARLSWTAPDAAFDSFTIEYYESFYGGEAIVLTVPGSERSYDLTGLKPGTEYYVSIYGVKGGWLSRPLSAIFTT
B20: SEQ ID NO 144 (designed binder)
chain: MLPAPKNLVVSRVTEDSARLSWTAPDAAFDSFIIPYAEVRPDGEAIVLTVPGSERSYDLTGLKPGTEYSVLIHGVKGGKLSLPLSAIFTT
B21: SEQ ID NO 145 (designed binder)
chain: MLPAPKNLVVSRVTEDSARLSWTAPDAAFDSFFIPYAEPSPTGEAIVLTVPGSERSYDLTGLKPGTEYDVWIEGVKGGTLSWPLSAIFTT
B22: SEQ ID NO 133 (designed binder)
chain: MLPAPKNLVVSRVTEDSARLSWTAPDAAFDSFPIVYGEAWVTGEAIVLTVPGSERSYDLTGLKPGTEYDVWIEGVKGGELSWPLSAIFTT
B23: SEQ ID NO 140 (designed binder)
chain: MLPAPKNLVVSRVTEDSARLSWTAPDAAFDSFWISYEESDTEGEAIYLRVPGSERSYDLTGLKPGTEYNVTIQGVKGGFPSMPLSAIFTT
B24: SEQ ID NO 152 (designed binder)
chain: MLPAPKNLVVSRVTEDSARLSWTAPDAAFDSFFIGYLEPQPPGEAIVLTVPGSERSYDLTGLKPGTEYNVTIQGVKGGFPSSPLSAIFTT
B25: SEQ ID NO 147 (designed binder)
chain: MLPAPKNLVVSRVTEDSARLSWTAPDAAFDSFFIGYLEPQPPGEAIVLTVPGSERSYDLTGLKPGTEYSVLIHGVKGGRNSDPLSAISTT
B26: SEQ ID NO 159 (designed binder)
chain: MLPAPKNLVVSRVTEDSARLSWTAPDAAFDSFLIPYAETSPSGEAIVLTVPGSERSYDLTGLKPGTEYSVLIHGVKGGRNSDPLSAIFTT
B27: SEQ ID NO 165 (designed binder)
chain: MLPARKNLVVSRVTEDSARLSWTAPDAAFDSFFIPYAEPSPTGEAIVLTVPGSERSYDLTGLKPGTEYSVLIHGVKGGHLSDPLSAISTT
B28: SEQ ID NO 168 (designed binder)
chain: MLPAPKNLVVSRVTEDSARLSWTTPDAAFDSFFIGYLEPYPPGEAIVLTVPGSERSYDLTGLKPGTEYVVSIQGVKGGKPSDPLSAIFTT
B29: SEQ ID NO 151 (designed binder)
chain: MLPAPKNLVVSRVTEDSARLSWTAPDAAFDSFFIPYAEPSPTGEAIVLTVPGSERSYDLTGLKPGTEYGVVILGVKGGYGSDPLSAIFTT
B30: SEQ ID NO 150 (designed binder)
chain: MLPAPKNLVVSRVTEDSARLSWTAPDAAFDSFPIAYAEPSPTGEAIVLTVPGSERSYDLTGLKPGTEYSVLIHGVKGGHLSDPLSAIFTT
B31: SEQ ID NO 136 (designed binder)
chain: MLPAPKNLVVSRVTEDSARLSWTAPDAAFDSFFIYYIESYPAGEAIVLTVPGSERSYDLTGLKPGTEYWMGIDGVKGGRWSTPLSAIFTT
B32: SEQ ID NO 41 (designed binder)
chain: MLPAPKNLVISRVTEDSARLSWTAPDAAFDSFFIYYIESYPAGEAIVLTVPGSERSYDLTGLKPGTEYWVGIDGVKGGRWSTPLSAIFTT
B33: SEQ ID NO 43 (designed binder)
chain: MLPAPKNLVVSRVTEDSARLSWTAPDAAFDSFYIEYYESYPGGEAIVLTVPGSERSYDLTGLKPGTEYDVYIYGVKGGYWSRPLSAIFTT
B34: SEQ ID NO 139 (designed binder)
chain: MLPAPKNLVVSRVTEDSARLSWTAPDAAFDSFDISYWESGKYGEAIVLTVPGSESSYDLTGLKPGTEYLVDIFGVKGGYPSEPLSAIFTT
B35: SEQ ID NO 161 (designed binder)
chain: MLPAPKNLVVSRVTEDSARLSWTAPDAAFDSFTIRYWEELPTGEAIVLTVPGSERSYDLTGLKPGTEYTVEIFGVKGGYLSRPLSAISTT
B36: SEQ ID NO 155 (designed binder)
chain: MLPAPKNLVVSRVTEDSARLSWTAPDAAFDSFPITYRERSQYGEAIVLTVPGSERSYDLTGLKPGTEYVVPIEGVKGGRGSKPLSAIFTT
B37: SEQ ID NO 40 (designed binder)
chain: MLPAPKNLVVSRVTEDSARLSWTAPDAAFDSFVIEYWEYVGHGEAIVLTVPGSERSYDLTGLKPGTEYSVGIYGVKGGSLSRPLSAIFTT
B38: SEQ ID NO 141 (designed binder)
chain: MLPAPKNLVVSRVTEDSARLSWTAPDAAFDSFVIEYFEQFNLGEAIVLTVPGSERSYDLTGLKPGTEYLVGIYGVKGGWLSHPLSAIFTT
B39: SEQ ID NO 156 (designed binder)
chain: MLPAPKNLVVSRVTEDSARLSWTAPDAAFDSFAIEYFENLGIGEAIVLTVPGSERSYDLTGLKPGTEYVVNIYGVKGGWLSSPLSAIFTT
B40: SEQ ID NO 170 (designed binder)
chain: MLPAPKNLVVSRVTEDSARLSWTAPDAAFDSFFIGYPEYPATGEAIVLTVPGSERSYDLTGLKPGTEYFVDINGVKGGSLSYPLSAIFTT
B41: SEQ ID NO 172 (designed binder)
chain: MLPAPKNLVVSRVTEDSARLSWTAPDAAFDSFPIEYDEWWALGEAITLIVPASERSYDLTGLKPGTEYVVKIHGVKGGQRSYPLIAFFTT

These binders were tested against human serum albumin (human) (UniProt P02768) (assay: screening ELISA).
Chain of human serum albumin (human) (P02768 25-609 limits assumed): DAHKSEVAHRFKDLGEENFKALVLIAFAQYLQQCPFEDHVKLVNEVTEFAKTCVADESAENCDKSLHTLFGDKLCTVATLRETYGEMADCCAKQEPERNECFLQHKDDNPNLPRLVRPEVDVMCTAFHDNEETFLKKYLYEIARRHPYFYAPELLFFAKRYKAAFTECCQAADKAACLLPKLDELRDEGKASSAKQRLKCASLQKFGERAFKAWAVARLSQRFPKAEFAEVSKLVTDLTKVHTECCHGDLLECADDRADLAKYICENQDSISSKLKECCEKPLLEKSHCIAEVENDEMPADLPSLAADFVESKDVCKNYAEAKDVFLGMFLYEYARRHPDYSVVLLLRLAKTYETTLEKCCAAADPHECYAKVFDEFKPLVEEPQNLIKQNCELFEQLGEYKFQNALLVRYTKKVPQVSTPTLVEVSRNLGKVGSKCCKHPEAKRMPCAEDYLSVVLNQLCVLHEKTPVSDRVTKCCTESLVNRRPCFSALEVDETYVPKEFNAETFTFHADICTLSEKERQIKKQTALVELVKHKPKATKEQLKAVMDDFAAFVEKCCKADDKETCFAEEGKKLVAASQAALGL
For B1, the HSA was 9250. Work on B2 yielded an HSA of 3400. B3 showed an HSA of 1850. In the case of B4, the HSA is reported as 1350. With B5 the HSA was 3500. For B6, the HSA was 1900. B7 was tested, and the HSA was 6050. In the case of B8, the HSA is reported as 3250. B9 gave an HSA of 13100. Work on B10 yielded an HSA of 1950. In the case of B11, the HSA is reported as 2450. B12 showed an HSA of 2050. With B13 the HSA was 2350. B14 showed an HSA of 3300. B15 showed an HSA of 4150. In the case of B16, the HSA is reported as 3350. B17 was tested, and the HSA was 3800. In the case of B18, the HSA is reported as 5050. For B19, the HSA was 5920. For B20, the HSA was 2750. Work on B21 yielded an HSA of 48400. With B22 the HSA was 5000. With B23 the HSA was 1600. B24 gave an HSA of 5300. B25 showed an HSA of 71200. In the case of B26, the HSA is reported as 1950. Work on B27 yielded an HSA of 65200. Work on B28 yielded an HSA of 1950. B29 showed an HSA of 55000. B30 showed an HSA of 3500. Binder B31 has an HSA of 5700. For B32, the HSA was 10100. For B33, the HSA was 8160. B34 showed an HSA of 2100. In the case of B35, the HSA is reported as 5050. Binder B36 has an HSA of 26000. B37 gave an HSA of 2960. For B38, the HSA was 3150. Binder B39 has an HSA of 5000. For B40, the HSA was 16800. In the case of B41, the HSA is reported as 3700.
